Reference: patent publication US20230018670A1

Molecular target: mB7H3 (endogenous mouse B7H3 on B16 and B78 cells) (mouse) (UniProt Q8VE98)
Assay: flow cytometry on B16 cells (no GD2, mouse B7H3), 1 ug antibody per million cells, GAH PE; anti-GD2 antibody as control

Chain of mB7H3 (endogenous mouse B7H3 on B16 and B78 cells) (mouse) (Q8VE98 29-316 limits assumed): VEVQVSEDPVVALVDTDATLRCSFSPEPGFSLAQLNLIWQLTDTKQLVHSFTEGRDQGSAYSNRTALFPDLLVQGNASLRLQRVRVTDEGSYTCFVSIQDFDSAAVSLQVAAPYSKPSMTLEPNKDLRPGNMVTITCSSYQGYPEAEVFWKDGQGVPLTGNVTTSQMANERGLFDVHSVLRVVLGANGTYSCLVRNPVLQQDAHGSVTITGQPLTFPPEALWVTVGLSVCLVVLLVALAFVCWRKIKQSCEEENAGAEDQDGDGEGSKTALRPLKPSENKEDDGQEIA

MFI: 1 MFI
Substance: Invenra Dinutuximab (antibody)
